Test results from the supplement of paper PMC9112550, “Optimization of the antimicrobial peptide Bac7 by deep mutational scanning” (BMC Biology, 2022).

The sequences below were run on Escherichia coli TOP10 (assay: shrunken log2 fold change of peptide-encoding DNA abundance (4.5 h post-induction vs induction); higher = less antimicrobial activity (less host growth inhibition)). Settings: time post-induction: 4.5 h; library: site-saturation at positions 5, 18, 19, 20.
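Also: peptides expressed intracellularly from a pBAD plasmid library in pooled LB shake-flask culture, induced with 0.3% L-arabinose, DNA abundance read by NGS, three biological replicates, DESeq2 with apeglm shrinkage.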

Q: How did the “shrunken log2 fold change” value turn out when RRIRLRPPRLPRPRPRPGWVPRP was run?
A: 0.117

Q: With RRIRKRPPRLPRPRPRPSRLPRP as the sequence, how does the “shrunken log2 fold change” value read?
A: 0.111

Q: With RRIRMRPPRLPRPRPRPGIYPRP as the sequence, how does the “shrunken log2 fold change” value read?
A: -0.075

Q: RRIRERPPRLPRPRPRPESQPRP was tested. Which “shrunken log2 fold change” value did it give?
A: -0.101

Q: Which “shrunken log2 fold change” value does the source give for RRIRKRPPRLPRPRPRPMEYPRP here?
A: -0.00192

Q: RRIRYRPPRLPRPRPRPEMRPRP was tested. Which “shrunken log2 fold change” value did it give?
A: 0.0856

Q: RRIRNRPPRLPRPRPRPEMVPRP was tested. Which “shrunken log2 fold change” value did it give?
A: -0.0225

Q: With RRIRNRPPRLPRPRPRPVCKPRP as the sequence, how does the “shrunken log2 fold change” value read?
A: -0.0239

Q: For RRIRNRPPRLPRPRPRPVPDPRP, which “shrunken log2 fold change” value is on record?
A: -0.0278

Q: With RRIRRRPPRLPRPRPRPFMVPRP as the sequence, how does the “shrunken log2 fold change” value read?
A: -0.242

Q: RRIRIRPPRLPRPRPRPHSDPRP was tested. Which “shrunken log2 fold change” value did it give?
A: -0.439

Q: With RRIRLRPPRLPRPRPRPWHAPRP as the sequence, how does the “shrunken log2 fold change” value read?
A: -0.194

Q: RRIRCRPPRLPRPRPRPNVQPRP was tested. Which “shrunken log2 fold change” value did it give?
A: -0.0319

Q: With RRIRNRPPRLPRPRPRPWCMPRP as the sequence, how does the “shrunken log2 fold change” value read?
A: -0.312

Q: RRIRSRPPRLPRPRPRPWIRPRP was tested. Which “shrunken log2 fold change” value did it give?
A: -0.207

Q: For RRIRERPPRLPRPRPRPSRRPRP, which “shrunken log2 fold change” value is on record?
A: -0.432

Q: RRIRTRPPRLPRPRPRPWYMPRP was tested. Which “shrunken log2 fold change” value did it give?
A: -0.0891

Q: With RRIRARPPRLPRPRPRPLKIPRP as the sequence, how does the “shrunken log2 fold change” value read?
A: -0.165

Q: How did the “shrunken log2 fold change” value turn out when RRIRYRPPRLPRPRPRPDKIPRP was run?
A: -0.155

Q: How did the “shrunken log2 fold change” value turn out when RRIRARPPRLPRPRPRPLAVPRP was run?
A: 0.716

Q: How did the “shrunken log2 fold change” value turn out when RRIRWRPPRLPRPRPRPVVRPRP was run?
A: 0.405

Q: How did the “shrunken log2 fold change” value turn out when RRIRMRPPRLPRPRPRPWSMPRP was run?
A: -0.156

Q: RRIRHRPPRLPRPRPRPHHEPRP was tested. Which “shrunken log2 fold change” value did it give?
A: -0.0148

Q: For RRIRARPPRLPRPRPRPRNEPRP, which “shrunken log2 fold change” value is on record?
A: 0.557

Q: For RRIRDRPPRLPRPRPRPAKNPRP, which “shrunken log2 fold change” value is on record?
A: -0.119

Q: Which “shrunken log2 fold change” value does the source give for RRIRKRPPRLPRPRPRPGRTPRP here?
A: 0.223

Q: With RRIRPRPPRLPRPRPRPPVAPRP as the sequence, how does the “shrunken log2 fold change” value read?
A: 0.366

Q: Which “shrunken log2 fold change” value does the source give for RRIRSRPPRLPRPRPRPFRNPRP here?
A: -0.225

Q: For RRIRFRPPRLPRPRPRPAQHPRP, which “shrunken log2 fold change” value is on record?
A: 0.265

Q: For RRIRQRPPRLPRPRPRPMKLPRP, which “shrunken log2 fold change” value is on record?
A: 0.00355

Q: RRIRERPPRLPRPRPRPGNWPRP was tested. Which “shrunken log2 fold change” value did it give?
A: -0.0108

Q: RRIRYRPPRLPRPRPRPHMGPRP was tested. Which “shrunken log2 fold change” value did it give?
A: 3.73

Q: For RRIRRRPPRLPRPRPRPELMPRP, which “shrunken log2 fold change” value is on record?
A: 0.0537

Q: For RRIRRRPPRLPRPRPRPWNNPRP, which “shrunken log2 fold change” value is on record?
A: -0.173

Q: Which “shrunken log2 fold change” value does the source give for RRIRRRPPRLPRPRPRPTRNPRP here?
A: 0.853

Q: RRIRCRPPRLPRPRPRPVHIPRP was tested. Which “shrunken log2 fold change” value did it give?
A: -0.831

Q: With RRIRLRPPRLPRPRPRPKNIPRP as the sequence, how does the “shrunken log2 fold change” value read?
A: -0.499

Q: For RRIRYRPPRLPRPRPRPPHTPRP, which “shrunken log2 fold change” value is on record?
A: -0.656

Q: Which “shrunken log2 fold change” value does the source give for RRIRGRPPRLPRPRPRPPMCPRP here?
A: 0.525

Q: With RRIRPRPPRLPRPRPRPNDGPRP as the sequence, how does the “shrunken log2 fold change” value read?
A: -0.482

Q: RRIRVRPPRLPRPRPRPAAFPRP was tested. Which “shrunken log2 fold change” value did it give?
A: 0.227

Q: Which “shrunken log2 fold change” value does the source give for RRIRRRPPRLPRPRPRPEGFPRP here?
A: 0.151

Q: With RRIRFRPPRLPRPRPRPACAPRP as the sequence, how does the “shrunken log2 fold change” value read?
A: 0.291

Q: With RRIRKRPPRLPRPRPRPAQEPRP as the sequence, how does the “shrunken log2 fold change” value read?
A: 0.371

Q: RRIRQRPPRLPRPRPRPDYCPRP was tested. Which “shrunken log2 fold change” value did it give?
A: -0.163

Q: For RRIRWRPPRLPRPRPRPCICPRP, which “shrunken log2 fold change” value is on record?
A: 0.16

Q: For RRIRSRPPRLPRPRPRPMGVPRP, which “shrunken log2 fold change” value is on record?
A: -0.084

Q: RRIRQRPPRLPRPRPRPWTCPRP was tested. Which “shrunken log2 fold change” value did it give?
A: 0.0112

Q: RRIRFRPPRLPRPRPRPIFQPRP was tested. Which “shrunken log2 fold change” value did it give?
A: -0.46

Q: With RRIRIRPPRLPRPRPRPLGQPRP as the sequence, how does the “shrunken log2 fold change” value read?
A: -0.00501

Q: Which “shrunken log2 fold change” value does the source give for RRIRSRPPRLPRPRPRPSAEPRP here?
A: 0.567

Q: With RRIRTRPPRLPRPRPRPYNFPRP as the sequence, how does the “shrunken log2 fold change” value read?
A: 0.0438

Q: RRIRDRPPRLPRPRPRPCFMPRP was tested. Which “shrunken log2 fold change” value did it give?
A: 0.0118

Q: With RRIRARPPRLPRPRPRPMHVPRP as the sequence, how does the “shrunken log2 fold change” value read?
A: -0.0248

Q: Which “shrunken log2 fold change” value does the source give for RRIRIRPPRLPRPRPRPVLTPRP here?
A: -0.0413

Q: RRIRMRPPRLPRPRPRPRSHPRP was tested. Which “shrunken log2 fold change” value did it give?
A: 0.407

Q: Which “shrunken log2 fold change” value does the source give for RRIRPRPPRLPRPRPRPQYIPRP here?
A: -0.457

Q: For RRIRTRPPRLPRPRPRPGMRPRP, which “shrunken log2 fold change” value is on record?
A: 0.744

Q: With RRIRWRPPRLPRPRPRPGDEPRP as the sequence, how does the “shrunken log2 fold change” value read?
A: 0.0372

Q: With RRIRKRPPRLPRPRPRPVYWPRP as the sequence, how does the “shrunken log2 fold change” value read?
A: -0.0795

Q: Which “shrunken log2 fold change” value does the source give for RRIRDRPPRLPRPRPRPHFTPRP here?
A: -0.307

Q: RRIRSRPPRLPRPRPRPVNDPRP was tested. Which “shrunken log2 fold change” value did it give?
A: -0.389

Q: RRIRWRPPRLPRPRPRPNVLPRP was tested. Which “shrunken log2 fold change” value did it give?
A: -0.0626

Q: Which “shrunken log2 fold change” value does the source give for RRIRGRPPRLPRPRPRPTDLPRP here?
A: -0.109

Q: For RRIRHRPPRLPRPRPRPGSIPRP, which “shrunken log2 fold change” value is on record?
A: -0.209

Q: For RRIRQRPPRLPRPRPRPFCEPRP, which “shrunken log2 fold change” value is on record?
A: -0.0314

Q: RRIRCRPPRLPRPRPRPLDFPRP was tested. Which “shrunken log2 fold change” value did it give?
A: -0.175

Q: RRIRSRPPRLPRPRPRPERRPRP was tested. Which “shrunken log2 fold change” value did it give?
A: 0.23

Q: For RRIRPRPPRLPRPRPRPTRRPRP, which “shrunken log2 fold change” value is on record?
A: 0.591

Q: How did the “shrunken log2 fold change” value turn out when RRIRPRPPRLPRPRPRPFMFPRP was run?
A: -0.361

Q: With RRIRHRPPRLPRPRPRPWNGPRP as the sequence, how does the “shrunken log2 fold change” value read?
A: -0.228

Q: How did the “shrunken log2 fold change” value turn out when RRIRNRPPRLPRPRPRPQPVPRP was run?
A: 0.0704

Q: For RRIRERPPRLPRPRPRPCCYPRP, which “shrunken log2 fold change” value is on record?
A: 0.00792

Q: For RRIRWRPPRLPRPRPRPKFYPRP, which “shrunken log2 fold change” value is on record?
A: -0.24

Q: For RRIRVRPPRLPRPRPRPSMWPRP, which “shrunken log2 fold change” value is on record?
A: -0.104

Q: RRIRHRPPRLPRPRPRPSGSPRP was tested. Which “shrunken log2 fold change” value did it give?
A: -0.175

Q: RRIRTRPPRLPRPRPRPSNIPRP was tested. Which “shrunken log2 fold change” value did it give?
A: -0.329

Q: Which “shrunken log2 fold change” value does the source give for RRIRRRPPRLPRPRPRPIKLPRP here?
A: -0.128

Q: With RRIRERPPRLPRPRPRPRSSPRP as the sequence, how does the “shrunken log2 fold change” value read?
A: 0.116

Q: For RRIRDRPPRLPRPRPRPSNIPRP, which “shrunken log2 fold change” value is on record?
A: -0.182

Q: With RRIRGRPPRLPRPRPRPPCGPRP as the sequence, how does the “shrunken log2 fold change” value read?
A: 0.554

Q: Which “shrunken log2 fold change” value does the source give for RRIRPRPPRLPRPRPRPKYKPRP here?
A: -0.39

Q: RRIRYRPPRLPRPRPRPNAPPRP was tested. Which “shrunken log2 fold change” value did it give?
A: -0.228

Q: How did the “shrunken log2 fold change” value turn out when RRIRPRPPRLPRPRPRPSEIPRP was run?
A: -0.261

Q: How did the “shrunken log2 fold change” value turn out when RRIRLRPPRLPRPRPRPASRPRP was run?
A: 0.00832

Q: Which “shrunken log2 fold change” value does the source give for RRIRERPPRLPRPRPRPEWPPRP here?
A: 0.102

Q: RRIRYRPPRLPRPRPRPITWPRP was tested. Which “shrunken log2 fold change” value did it give?
A: -0.353

Q: How did the “shrunken log2 fold change” value turn out when RRIRWRPPRLPRPRPRPEDTPRP was run?
A: -0.0372

Q: With RRIRMRPPRLPRPRPRPFAQPRP as the sequence, how does the “shrunken log2 fold change” value read?
A: 0.0306

Q: How did the “shrunken log2 fold change” value turn out when RRIRIRPPRLPRPRPRPFYWPRP was run?
A: -0.12

Q: How did the “shrunken log2 fold change” value turn out when RRIRRRPPRLPRPRPRPLMKPRP was run?
A: -0.12

Q: With RRIRDRPPRLPRPRPRPSCHPRP as the sequence, how does the “shrunken log2 fold change” value read?
A: -0.287

Q: With RRIRTRPPRLPRPRPRPDASPRP as the sequence, how does the “shrunken log2 fold change” value read?
A: 0.0856

Q: With RRIRQRPPRLPRPRPRPRPNPRP as the sequence, how does the “shrunken log2 fold change” value read?
A: 0.183

Q: For RRIRNRPPRLPRPRPRPYIHPRP, which “shrunken log2 fold change” value is on record?
A: -0.387

Q: With RRIRYRPPRLPRPRPRPCKVPRP as the sequence, how does the “shrunken log2 fold change” value read?
A: -0.422

Q: With RRIRERPPRLPRPRPRPHYKPRP as the sequence, how does the “shrunken log2 fold change” value read?
A: -0.901

Q: For RRIRRRPPRLPRPRPRPRTFPRP, which “shrunken log2 fold change” value is on record?
A: 0.338

Q: Which “shrunken log2 fold change” value does the source give for RRIRWRPPRLPRPRPRPPNTPRP here?
A: 0.142

Q: Which “shrunken log2 fold change” value does the source give for RRIRIRPPRLPRPRPRPGSNPRP here?
A: -0.515

Q: RRIRYRPPRLPRPRPRPDTDPRP was tested. Which “shrunken log2 fold change” value did it give?
A: -0.02

Q: For RRIRLRPPRLPRPRPRPRMTPRP, which “shrunken log2 fold change” value is on record?
A: 0.206

Q: Which “shrunken log2 fold change” value does the source give for RRIRHRPPRLPRPRPRPQFKPRP here?
A: -0.024

Q: For RRIRLRPPRLPRPRPRPTKDPRP, which “shrunken log2 fold change” value is on record?
A: -0.183

Q: With RRIRNRPPRLPRPRPRPVYIPRP as the sequence, how does the “shrunken log2 fold change” value read?
A: -0.434

Q: With RRIRIRPPRLPRPRPRPERSPRP as the sequence, how does the “shrunken log2 fold change” value read?
A: -0.164

Q: For RRIRYRPPRLPRPRPRPERYPRP, which “shrunken log2 fold change” value is on record?
A: 0.11

Q: With RRIRMRPPRLPRPRPRPKIKPRP as the sequence, how does the “shrunken log2 fold change” value read?
A: 0.248

Q: With RRIRIRPPRLPRPRPRPLCEPRP as the sequence, how does the “shrunken log2 fold change” value read?
A: -0.332
